This is an account of results in publication PMC2835542.

The assay addresses human epidermal growth factor receptor (EGFR), stably over-expressed on rat 9L gliosarcoma cells (human) (UniProt P00533). In words: X-gal staining of live cells incubated with β-gal-labelled ligand complex.

“EGF ligand-complex with full-length β-gal reporter (EGF-B-SA-B-β-gal)” gave a percent of cells labelled above 75%.
